From IntAct's records for PubMed 12540855

B1: Histone-lysine N-methyltransferase SETD7 (Homo sapiens), Q8WTS6 (parent)
chain: MDSDDEMVEEAVEGHLDDDGLPHGFCTVTYSSTDRFEGNFVHGEKNGRGKFFFFDGSTLEGYYVDDALQGQGVYTYEDGGVLQGTYVDGELNGPAQEYDTDGRLIFKGQYKDNIRHGVCWIYYPDGGSLVGEVNEDGEMTGEKIAYVYPDERTALYGKFIDGEMIEGKLATLMSTEEGRPHFELMPGNSVYHFDKSTSSCISTNALLPDPYESERVYVAESLISSAGEGLFSKVAVGPNTVMSFYNGVRITHQEVDSRDWALNGNTLSLDEETVIDVPEPYNHVSKYCASLGHKANHSFTPNCIYDMFVHPRFGPIKCIRTLRAVEADEELTVAYGYDHSPPGKSGPEAPEWYQVELKAFQATQQK

Variants of: B1
Conditions: with h31_human H3C1, P68431

| Variant | effect of a mutation on the interaction |
| --- | --- |
| Y245A | decreasing interaction |
